The values below come from paper PMC10397247.

Common to all, as to assay: two-hybrid library CCNG1;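 also: natural log of median RNA to DNA barcode read ratio; higher means stronger binding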
The target of assay [1] is T1, 4H855-bA.
T1 chain: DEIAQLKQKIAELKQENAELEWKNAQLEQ

The target in assay [2] is T2, 4H918-bA.
T2 chain: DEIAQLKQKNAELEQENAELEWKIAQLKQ

The target of assay [3] is T3, 4H953-bA.
T3 chain: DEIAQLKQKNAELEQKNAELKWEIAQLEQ

The target in assay [4] is T4, 4H968-bA.
T4 chain: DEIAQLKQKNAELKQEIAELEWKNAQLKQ

The target of assay [5] is T5, O11-bA.
T5 chain: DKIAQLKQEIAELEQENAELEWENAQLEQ

Assay [6] deals with T6, 4H1449-bA.
T6 chain: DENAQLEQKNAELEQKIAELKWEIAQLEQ

In assay [7] the target is T7, 4H1544-bA.
T7 chain: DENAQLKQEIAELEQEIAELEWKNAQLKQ

Assay [8] addresses T8, 4H1629-bA.
T8 chain: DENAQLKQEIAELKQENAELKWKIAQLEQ

The target of assay [9] is T9, 4H1710-bA.
T9 chain: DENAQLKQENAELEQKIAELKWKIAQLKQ

Assay [10] deals with T10, 4H1804-bA.
T10 chain: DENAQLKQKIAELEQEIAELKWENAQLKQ

In assay [11] the target is T11, 4H1899-bA.
T11 chain: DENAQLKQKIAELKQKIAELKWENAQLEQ

Assay [12] addresses T12, 4H1985-bA.
T12 chain: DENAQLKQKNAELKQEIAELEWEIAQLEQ

Assay [13] concerns the target T13, 4H3129-bA.
T13 chain: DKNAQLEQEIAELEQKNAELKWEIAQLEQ

Assay [14] addresses T14, 4H3172-bA.
T14 chain: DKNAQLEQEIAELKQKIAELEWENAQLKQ

Assay [15] concerns the target T15, 4H3414-bA.
T15 chain: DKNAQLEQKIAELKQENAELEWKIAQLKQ

The target in assay [16] is T16, 4H3613-bA.
T16 chain: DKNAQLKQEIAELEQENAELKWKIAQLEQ

Assay [17] addresses T17, 4H3628-bA.
T17 chain: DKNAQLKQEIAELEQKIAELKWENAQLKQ

Assay [18] deals with T18, 4H3631-bA.
T18 chain: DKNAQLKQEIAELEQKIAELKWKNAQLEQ

Assay [19] has as its target T19, 4H3638-bA.
T19 chain: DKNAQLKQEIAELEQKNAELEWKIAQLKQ

Assay [20] concerns the target T20, 4H3817-bA.
T20 chain: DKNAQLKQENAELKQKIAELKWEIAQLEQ

For assay [21], the target named is T21, 4H3858-bA.
T21 chain: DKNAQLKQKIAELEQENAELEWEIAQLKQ

For assay [22], the target named is T22, 4H3974-bA.
T22 chain: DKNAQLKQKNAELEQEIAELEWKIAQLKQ

Assay [23] addresses T23, 4H570-bA.
T23 chain: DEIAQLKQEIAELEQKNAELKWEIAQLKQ

In assay [24] the target is T24, 4H584-bA.
T24 chain: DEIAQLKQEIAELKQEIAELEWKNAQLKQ

The target of assay [25] is T25, 4H619-bA.
T25 chain: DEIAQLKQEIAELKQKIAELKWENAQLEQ

Assay [26] deals with T26, 4H850-bA.
T26 chain: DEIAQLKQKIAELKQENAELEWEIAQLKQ

The target of assay [27] is T27, 4H906-bA.
T27 chain: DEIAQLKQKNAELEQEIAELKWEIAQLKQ

Regarding DEIAQLKQKIAELKQENAELEWKNAQLEQ [4H855-bA], the interaction score was -0.844 in assay [1]; -1.16 in [2]; -1.71 in [3]; -0.685 in [4]; -3.09 in assay [5].

As to DENAQLEQKNAELEQKIAELKWEIAQLEQ [4H1449-bA], the interaction score was -0.613 in assay [6]; -0.535 in assay [7]; -1.11 in assay [8]; 0.786 in assay [9]; -0.732 in [10]; -0.25 in assay [11]. For the same molecule, the interaction score was 0.787 in assay [12]; -0.874 in assay [13]; -1.06 in assay [14]; -1.03 in assay [15]; -0.891 in [16]; -0.201 in [17]. Moreover, the interaction score in assay [18] is 0.473; in assay [19], -1.83; in [20] it was -0.857; in assay [21] it was -0.848; in [22], 2.19; in assay [23], -1.93. Moreover, the interaction score is -1.3 in [24], -1.52 in assay [25], -0.723 in assay [26] and -0.904 in [27].
